Results reported in PMC4627827, “SCARN a Novel Class of SCAR Protein That Is Required for Root-Hair Infection during Legume Nodulation”.
Each block holds one molecule with its values, some of them ahead of it.

Experiments:
[1] = target: LjARPC3 (yeast two-hybrid fusion) (Lotus japonicus); experiment: two-hybrid; S. cerevisiae AH109; quantitative β-galactosidase (lacZ) activity under the control of the GAL4 promoter
[2] = target: NIN C-terminal half (RWP-RK domain) (Lotus japonicus, UniProt Q9S7B1 520-878); experiment: EMSA; 0.5 or 1 ug protein; unlabeled competitor 5x, 10x or 50x; EMSA with LightShift chemiluminescent kit (Thermo); buffer, salt, pH and temperature not stated; details: protein: recombinant; tags: C-terminal His; label: biotin; blunt
Sequence of NIN C-terminal half (RWP-RK domain) (Q9S7B1 entry or part of it): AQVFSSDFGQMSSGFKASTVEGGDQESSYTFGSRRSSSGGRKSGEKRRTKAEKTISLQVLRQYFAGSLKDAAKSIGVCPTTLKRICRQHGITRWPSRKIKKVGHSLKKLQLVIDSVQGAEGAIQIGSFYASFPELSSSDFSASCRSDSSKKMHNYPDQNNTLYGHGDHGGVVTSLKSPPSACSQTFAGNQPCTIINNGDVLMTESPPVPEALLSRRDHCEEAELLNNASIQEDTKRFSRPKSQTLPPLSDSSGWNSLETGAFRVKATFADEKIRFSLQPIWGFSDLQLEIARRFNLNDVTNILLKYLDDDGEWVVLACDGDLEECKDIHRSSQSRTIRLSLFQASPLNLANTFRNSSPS

β-galactosidase (LacZ) activity [1]: 18.1 units
Molecule: SCARN C-terminal WA domain (yeast two-hybrid fusion) (domain or fragment)

B1: SCARN promoter S2 (dsDNA)
DNA 1: AAGAGGTGAAACTGAAGGAGTCAAGAGGATTGCAGAAGAA
DNA 2: TTCTTCTGCAATCCTCTTGACTCCTTCAGTTTCACCTCTT
binding result [2]: binds

B2: SCARN promoter S1 (dsDNA)
DNA 1: GTAGTAGAGAGATAGAGTGAGTGAAAGGGTTTGAGGAATG
DNA 2: CATTCCTCAAACCCTTTCACTCACTCTATCTCTCTACTAC
binding result [2]: binds

B3: SCARN promoter S3 (dsDNA)
DNA 1: AGTCAAGAGGATTGCAGAAGAAAGTAGGGTTTGTGAATCG
DNA 2: CGATTCACAAACCCTACTTTCTTCTGCAATCCTCTTGACT
binding result [2]: binds
